Test results as given in patent publication US12091776B2, “Protease activity profiling via programmable phage display of comprehensive proteome-scale peptide libraries” (THE JOHNS HOPKINS UNIVERSITY, priority 2019, dated 2024).

B1: VASN: Vasorin, known ADAM17 substrate; library peptide amino acids 496-585 (protein)
peptide: LTYRNLSGPDKRLVTLRLPASLAEYTVTQLRPNATYSVCVMPLGPGRVPEGEEACGEAHTPPAVHSNHAPVTQAREGNLPLLIAPALAAV
B2: EPEPTPGLVLSKPALEEEEAPRALSLLSLPPKKRSILGLGQARPLEFLRTCYGGSFLVHESFLYKREKAVGDKVYWTCRDHALHGCRSRA (protein, listed as Homo sapiens)
chain: EPEPTPGLVLSKPALEEEEAPRALSLLSLPPKKRSILGLGQARPLEFLRTCYGGSFLVHESFLYKREKAVGDKVYWTCRDHALHGCRSRA
B3: YVAPLTAQPATYRAQPSVSLGAAYRAQPSASLGVGYRTQPMTAQAASYRAQPSVSLGAPYRGQLASPSSQSAAASSLGPYGGAQPSASAL (protein, listed as Homo sapiens)
chain: YVAPLTAQPATYRAQPSVSLGAAYRAQPSASLGVGYRTQPMTAQAASYRAQPSVSLGAPYRGQLASPSSQSAAASSLGPYGGAQPSASAL
B4: SPLIAPVMGTVAVSLSSPLLSSTATPPGVSQNLLANPMSNLVLPEAPRLRLAEPLRGGPTGPQSPACVVPTATTKVPLSTEPPQSTQDPE (protein, listed as Homo sapiens)
chain: SPLIAPVMGTVAVSLSSPLLSSTATPPGVSQNLLANPMSNLVLPEAPRLRLAEPLRGGPTGPQSPACVVPTATTKVPLSTEPPQSTQDPE
B5: PVTSTSSASTGHATPLPVTGLSSATTDDTTRLPVTDVSSASTGQATPLPVTSLSSVSTGDTTPLPVTSPSSASTGHASPLLVTDASSAST (protein, listed as Homo sapiens)
chain: PVTSTSSASTGHATPLPVTGLSSATTDDTTRLPVTDVSSASTGQATPLPVTSLSSVSTGDTTPLPVTSPSSASTGHASPLLVTDASSAST
B6: IAAKAQLARQQSPSPIRHSPSPVRHVRAPTPSPVRSVSPAARISTSPIRSVRSPLLMRKTQASTVATGPEVPPPWKQEGYVASSSEAEMR (protein, listed as Homo sapiens)
chain: IAAKAQLARQQSPSPIRHSPSPVRHVRAPTPSPVRSVSPAARISTSPIRSVRSPLLMRKTQASTVATGPEVPPPWKQEGYVASSSEAEMR
B7: QSVSPVQAPPPGGSAQLLPGKVLVPLAAPSMSVRGGGAGQPLPLVSPPFSVPVQNGAQPPSKIIQLTPVPVSTPSGLVPPLSPATLPGPT (protein, listed as Homo sapiens)
chain: QSVSPVQAPPPGGSAQLLPGKVLVPLAAPSMSVRGGGAGQPLPLVSPPFSVPVQNGAQPPSKIIQLTPVPVSTPSGLVPPLSPATLPGPTA
B8: MELQSRPEALAVELARHQNGDLKKQLHERQPRIAALSDKQALGTITAVPVTGPQVSSLQRLAGQGAAVLPQVRPKTLIPDSLPVAPGRDR (protein, listed as Homo sapiens)
chain: MELQSRPEALAVELARHQNGDLKKQLHERQPRIAALSDKQALGTITAVPVTGPQVSSLQRLAGQGAAVLPQVRPKTLIPDSLPVAPGRDR
B9: ARQEKLAFQEDSRSTLSRRELDAAHTGTTGQDSDFPVTAASTVDFLKIKKSCEENVCRSLKDCEMEKCPDSCAHEMESVADHEPNKRILG (protein, listed as Homo sapiens)
chain: ARQEKLAFQEDSRSTLSRRELDAAHTGTTGQDSDFPVTAASTVDFLKIKKSCEENVCRSLKDCEMEKCPDSCAHEMESVADHEPNKRILG
B10: HSALPFRLQLRRGEARLGEERHFQESGNSSWEILRASKAEEGTYECTAVSRAGTGRAKAQIVVTDPPPQLVPAPNVTVSPGETAVLSCRV (protein, listed as Homo sapiens)
chain: HSALPFRLQLRRGEARLGEERHFQESGNSSWEILRASKAEEGTYECTAVSRAGTGRAKAQIVVTDPPPQLVPAPNVTVSPGETAVLSCRV
B11: VLNSGARVWPSASALGLTAPPKDAEDRARPASGLRGARVLSEGREPRASLRVQVRPGLDVAAPGVCSLSCPSPPRSSAHPGPRGPLFPAL (protein, listed as Homo sapiens)
chain: VLNSGARVWPSASALGLTAPPKDAEDRARPASGLRGARVLSEGREPRASLRVQVRPGLDVAAPGVCSLSCPSPPRSSAHPGPRGPLFPAL
B12: SSVSTGHTTPLHVTDASSASTGQATPLPVTSLSSVSTGDTTPLPVTSPSSASTGHATPLLVTDTSSASTGHATPLPVTDASSVSTDHATS (protein, listed as Homo sapiens)
chain: SSVSTGHTTPLHVTDASSASTGQATPLPVTSLSSVSTGDTTPLPVTSPSSASTGHATPLLVTDTSSASTGHATPLPVTDASSVSTDHATS
B13: KAGVVTLHSVGPTAATGTTAGTGLLQTSKPLVTSVANTVTTVSLQPEKPVVSGTAVTLSLPAVTFGETSGAAICLPSVKPVVSSAGTTS (protein, listed as Homo sapiens)
chain: KAGVVTLHSVGPTAATGTTAGTGLLQTSKPLVTSVANTVTTVSLQPEKPVVSGTAVTLSLPAVTFGETSGAAICLPSVKPVVSSAGTTS
B14: RLALPLRSLSASSGWNESCSSQSDISLDHVQRRRSRLKEPPELQSSERAAGSPPAPGTMSKHRGKSSATCRCCVTYCEGENHLRNKSRAE (protein, listed as Homo sapiens)
chain: RLALPLRSLSASSGWNESCSSQSDISLDHVQRRRSRLKEPPELQSSERAAGSPPAPGTMSKHRGKSSATCRCCVTYCEGENHLRNKSRAE
B15: EIVPASLQRVRRPVAMVMPARRTPHVQAVQGPLGSPPKRGPLPTEEQRVYRRKELEEVSPETPVVPATTQRTLARPGPEPAPATDERDRV (protein, listed as Homo sapiens)
chain: EIVPASLQRVRRPVAMVMPARRTPHVQAVQGPLGSPPKRGPLPTEEQRVYRRKELEEVSPETPVVPATTQRTLARPGPEPAPATDERDRV
B16: PARLLGPSLTSTTPASSSSGSSSRGPSDTSSRFSKEQRGVAQPLAQLRSCPQEEGPRGRGLAARPLENRAGGPVARSEEPGAPLPVAVGT (protein, listed as Homo sapiens)
chain: PARLLGPSLTSTTPASSSSGSSSRGPSDTSSRFSKEQRGVAQPLAQLRSCPQEEGPRGRGLAARPLENRAGGPVARSEEPGAPLPVAVGT
B17: ATPGAPGSSTPGEADIGNTSFGKSGKSGHDSLTVLNPAFLRRTPTVSAASTTSSPVSKHTDAASATAVTISGSKPGTPGTPGGATSGGKI (protein, listed as Homo sapiens)
chain: ATPGAPGSSTPGEADIGNTSFGKSGKSGHDSLTVLNPAFLRRTPTVSAASTTSSPVSKHTDAASATAVTISGSKPGTPGTPGGATSGGKI
B18: AIRLANSTASVSRGSMQELDMLAGLRRSHAPQSRSSLNAKPHDSLDLNCDSRDFVAAIISIPTPPANTPDESQPSSPGGGGRAGSTLRNS (protein, listed as Homo sapiens)
chain: AIRLANSTASVSRGSMQELDMLAGLRRSHAPQSRSSLNAKPHDSLDLNCDSRDFVAAIISIPTPPANTPDESQPSSPGGGGRAGSTLRNS
B19: … (protein, listed as Homo sapiens)
chain: STRPVLASIEPELPMQLVSQDDESGQKKLHGLQAILVHEASGTTAITATATGYQESHLSSARTKQPHDPLVPLSASIELILVEDVRVSPE
B20: KVATLPLSSRAGAPPAAVPIINMILPTVPALPGPGPGPGRAPPGGLTQPRGTENREVGIGGDQGPHDKGVKRTAEVPVSEASGQAPPAKA (protein, listed as Homo sapiens)
chain: KVATLPLSSRAGAPPAAVPIINMILPTVPALPGPGPGPGRAPPGGLTQPRGTENREVGIGGDQGPHDKGVKRTAEVPVSEASGQAPPAKA

molecular target: T1, ADAM17 (Homo sapiens, UniProt P78536); experiment: SEPARATE assay: human peptidome library digest with ADAM17; type: biochemical; details: human library, ADAM17; peptide amino acids 496-585
T1 construct: purchased RnD Systems
T1 sequence (P78536 215-824): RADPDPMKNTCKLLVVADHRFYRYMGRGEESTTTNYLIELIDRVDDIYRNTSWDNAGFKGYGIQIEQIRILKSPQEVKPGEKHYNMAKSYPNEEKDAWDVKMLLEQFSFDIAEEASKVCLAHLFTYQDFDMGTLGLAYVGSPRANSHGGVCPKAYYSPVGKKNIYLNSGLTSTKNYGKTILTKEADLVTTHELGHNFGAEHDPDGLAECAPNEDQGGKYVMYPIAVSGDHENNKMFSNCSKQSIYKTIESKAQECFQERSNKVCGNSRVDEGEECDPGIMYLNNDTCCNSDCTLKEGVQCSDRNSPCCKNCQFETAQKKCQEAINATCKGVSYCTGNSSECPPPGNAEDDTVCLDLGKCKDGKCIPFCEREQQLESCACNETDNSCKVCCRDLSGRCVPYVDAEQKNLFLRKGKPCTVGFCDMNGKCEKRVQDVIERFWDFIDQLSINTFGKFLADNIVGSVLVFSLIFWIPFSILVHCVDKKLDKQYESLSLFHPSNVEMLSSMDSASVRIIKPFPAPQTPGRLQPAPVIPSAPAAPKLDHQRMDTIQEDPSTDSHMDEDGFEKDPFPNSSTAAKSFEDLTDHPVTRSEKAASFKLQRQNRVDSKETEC
Method: Streptavidin-coupled magnetic beads (Dynabeads M-280 Streptavidin, ThermoFisher Scientific) were washed (TBS, pH 7.4, 0.01% NP40) and resuspended in binding buffer (TBS, pH 7.4, 0.001% NP40) containing 2E9 plaque forming units per 10 μl of bead slurry. End-over-end mixing at room temperature was performed for one hour. Phage-coated beads were washed three times with wash buffer and transferred into two protein LoBind Eppendorf tubes blocked with TBS, pH 7.4 containing 1% BSA.
Digestion occurred overnight at room temperature with end-over-end rotation. […] To remove any residual biotinylated phage that may have been nonspecifically released, the 150 μl supernatant of the quenched digest reaction is then incubated with a fresh 10 μl of slurry volume M280 streptavidin beads (pre-washed three times with wash buffer) in a LoBind Eppendorf tube blocked with TBS, pH 7.4 containing 1% BSA at room temperature for one hour with end-over-end rotation.
10 μl slurry volume of protein G magnetic dynabeads were washed in buffer (TBS, pH 7.4, 0.01% NP40) and then resuspended in 50 μl TBS, pH 7.4, 0.01% NP40 containing 4 μg of M2 FLAG antibody for thirty minutes at room temperature with end-over-end rotation. The 150 μl quenched digest reaction is added to the 10 μl FLAG-coated Protein G beads and incubated for 60 minutes at room temperature with end-over-end rotation to capture phage particles released at the protease digest step. Beads are rinsed once with 100 μl wash buffer and stored at −80° C. until PCR amplification.
Library PCR preparation, high-throughput DNA sequencing, and peptide read count data generation was performed as described previously.^44 Briefly, library peptide inserts are amplified by resuspending 10 μl of FLAG-coated Protein G beads in PCR1 master mix containing the T7-Pep2_PCR1_F forward primer ([…]) (SEQ ID NO:3) and a T7-SEPARATE vector specific reverse primer ([…]) (SEQ ID NO:4), which includes an adapter sequence for sample-specific barcoding and Illumina P7 adapter incorporation during a subsequent PCR2 reaction. The PCR2 amplicons are pooled and sequenced using an Illumina NextSeq instrument in standard output mode to obtain single-end 50 nucleotide reads. Dual indexed sample demultiplexing and clonal read count determination were performed using exact sequence matching. […] To calculate the normalization factor, 100 peptides were randomly selected from the mock digest conditions with a read count ranging between 10 and 40. The median read count value for these 100 peptides is calculated for each sample. The random peptide selection and median calculation is performed 20 times and the average of the 20 median values is calculated for each sample. Finally, the normalization factor is calculated by dividing the average median value for each sample by that for one of the mock digest conditions. Read counts are then converted to normalized read counts by dividing each sample's read count values by the normalization factor. Fold enrichments are calculated for each peptide by dividing their normalized read counts in the digest condition by the normalized read counts in the mock digest condition. The fold enrichments can be visualized in an MA plot by transforming the normalized read count data into a log ratio (M, on the y-axis) and a mean average (A, on the x-axis) between the digest and mock digest conditions.

B1 was tested, and the “known substrate peptide identified by SEPARATE” value was “identified”.

same assay, conditions: top 20 enriched peptides, human library (90-aa tiles); digest vs mock digest

First: B2
Second: B3
The “Adam17 Fold Change” value of the first is lower: 35.48 fold for the first, 39.99 fold for the second.

First: B4
Second: B5
The “Adam17 Fold Change” value of the first is higher: 51.48 fold for the first, 41.41 fold for the second.

Going from B6 to B7, the “Adam17 Fold Change” value rises from 37.14 fold to 57.55 fold.

Compared with B8, B9 is lower in “Adam17 Fold Change” value: 38.34 fold for the first, 34.10 fold for the second.

Compared with B10, B11 is higher in “Adam17 Fold Change” value: 43.29 fold for the first, 44.03 fold for the second.

Compared with B12, B13 is lower in “Adam17 Fold Change” value: 48.17 fold for the first, 39.07 fold for the second.

Compared with B14, B15 is lower in “Adam17 Fold Change” value: 39.89 fold for the first, 34.93 fold for the second.

Compared with B16, B17 is lower in “Adam17 Fold Change” value: 45.89 fold for the first, 39.34 fold for the second.

Compared with B18, B19 is lower in “Adam17 Fold Change” value: 57.97 fold for the first, 34.57 fold for the second.

For B20, the “Adam17 Fold Change” value was 35.48 fold.
